67 molecules from patent US20170037110A1 (IMMATICS BIOTECHNOLOGIES, published 2017) can be followed below.

Some results are limits rather than exact numbers.

The test concerns the target T1, HLA-A*02:01 (human).
T1 construct: monomers captured on streptavidin plates; also called MHC class I
The test can be described thus: UV peptide exchange ELISA. In a few lines:
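Read-out is an ELISA on the UV-exchange reaction: monomers, diluted 100-fold, are captured on streptavidin and the β2m light chain is detected with 2 μg/ml HRP antibody and TMB at 450 nm.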
On the technique in general: In an ELISA, binding on a coated surface is turned into a signal by an enzyme label.
As to HLLSELEAAPYL, the peptide exchange yield was not below 75%. In the case of FLQAHLHTA, the peptide exchange yield was not below 75%. Under LLQNEQFEL stands 50 to 75%; under ALDEYTSEL, not below 75%. As for ALALGGIAVV, the peptide exchange yield is not below 75%. On to ILLDVKTRL, for which the peptide exchange yield was not below 75%.

In turn, SLLEQGLVEA came in with a peptide exchange yield of 20 to 50%. Regarding YLLPESVDL, the peptide exchange yield fell in the range of 50 to 75%. Consider ALFQATAEV, for which the peptide exchange yield was not below 75%.

Take YLFEMDSSL: the peptide exchange yield is 20 to 50%. With ILFANPNIFV, the peptide exchange yield is 50 to 75%.

SLLELLHIYV had a peptide exchange yield of 50 to 75%. Turning to ILADIVISA, the peptide exchange yield lay within 50 to 75%. Consider VIWKALIHL, for which the peptide exchange yield lay within 50 to 75%. With SLLEDKGLAEV, the peptide exchange yield is 20 to 50%. Under ILFRYPLTI stands 50 to 75%; under ALLELENSVTL, 50 to 75%; under YVYPQRLNFV, 50 to 75%. In turn, HIYDKVMTV yielded a peptide exchange yield of 50 to 75%. Under ALLSMTFPL stands not below 75%. In the case of RLLDMGETDLML, the peptide exchange yield fell in the range of 50 to 75%. Consider ALLDVTHSELTV, for which the peptide exchange yield lay within 50 to 75%. The molecule ALLHPQGFEV displayed a peptide exchange yield of 20 to 50%. Under YLISELEAA stands 50 to 75%.

In turn, KLLGKLPEL returned a peptide exchange yield of 50 to 75%.

SLFKHDPAAWEA: the peptide exchange yield is not below 75%.

LLADVTHLL returned a peptide exchange yield of 20 to 50%. Under LLAVIGGLVYL stands 50 to 75%; under GLFPEHLIDV, 50 to 75%; under TLYGLSVLL, 50 to 75%. Molecule ALLELAEEL yielded a peptide exchange yield of 50 to 75%.

Molecule YLQDQHLLLTV registered a peptide exchange yield of 50 to 75%. Under SLSDGLEEV stands 20 to 50%; under LILEGVDTV, 20 to 50%; under LLDSKVPSV, 50 to 75%. For the molecule FLLQQHLISA, the peptide exchange yield was 20 to 50%. Under GLWEIENNPTVKA stands not below 75%. ALYELEGTTV displayed a peptide exchange yield of 50 to 75%. ALGYFVPYV yielded a peptide exchange yield of 50 to 75%.

With KVDTVWVNV, the peptide exchange yield was in the range of 50 to 75%. TLTKVLVAL returned a peptide exchange yield of 50 to 75%. YSLSSVVTV registered a peptide exchange yield of 50 to 75%. Consider SMHDLVLQV, for which the peptide exchange yield fell in the range of 50 to 75%. For FLPDEPYIKV, the peptide exchange yield lay within 50 to 75%. As to SLIPNLRNV, the peptide exchange yield lay within 50 to 75%.

For YVIDQGETDVYV, the peptide exchange yield was in the range of 50 to 75%.

Take FIDEAYVEV: the peptide exchange yield was in the range of 20 to 50%. Regarding FLPDANSSV, the peptide exchange yield fell in the range of 20 to 50%. Regarding ALQNYIKEA, the peptide exchange yield fell in the range of 20 to 50%. Turning to SLLQDLVSV, the peptide exchange yield was in the range of 50 to 75%.

Turning to AMFESSQNVLL, the peptide exchange yield fell in the range of 20 to 50%. Consider TMLLNIPLV, for which the peptide exchange yield was in the range of 20 to 50%. Regarding ILLTAIVQV, the peptide exchange yield was 50 to 75%.

In turn, SLLEVNEESTV registered a peptide exchange yield of 50 to 75%. The molecule GLLDTQTSQVLTA gave a peptide exchange yield of 20 to 50%.

SLQNHNHQL gave a peptide exchange yield of 50 to 75%. ALLPDLPAL returned a peptide exchange yield of 50 to 75%. On to ALFMKQIYL, for which the peptide exchange yield fell in the range of 50 to 75%. In turn, SQIALNEKLVNL registered a peptide exchange yield of 50 to 75%. In turn, SIQQSIERLLV showed a peptide exchange yield of 20 to 50%. Under TLIEDEIATI stands 20 to 50%; under KVLDVSDLESV, 20 to 50%. On to QLLDETSAITL, for which the peptide exchange yield lay within 50 to 75%. For the molecule QLALKVEGV, the peptide exchange yield fell in the range of 50 to 75%. The molecule IMEGTLTRV returned a peptide exchange yield of 20 to 50%. In the case of FLLDSSASV, the peptide exchange yield was 20 to 50%. KMLGIPISNILMV yielded a peptide exchange yield of 50 to 75%.
